Numbering of substitutions follows the chain as printed.
B1: 2V15-20GS (VHH)
chain: QLQLVESGGGSVQPGGSLRLSCEVSGRTFASYTMGWFRQAPGKEREFVVAISKGGYKYDSVSLEARFTISKDNTKNTVYLQMNSLKPEDTAVYYCAGTRAYGSSRLRLAETYEYWGQGTQVTVSSGGGGSGGGSGGGSGGGSGGSQLQLVESGGGSVQPGGSLRLSCEVSGRTFASYTMGWFRQAPGKEREFVVAISKGGYKYDSVSLEARFTISKDNTKNTVYLQMNSLKPEDTAVYYCAGTRAYGSSRLRLAETYEYWGQGTQVTVSS
notes: Tandem bivalent nanobody
B2: 2V1-EAAAK-Turn (VHH)
chain: QLQLVESGGGSVQPGGSLRLSCEVSGRTFSSYTMGWFRQAPGKEREFVVAISKGGYKYDSVSLEARFTISKDNTKNTVYLQMNSLKPEDTAVYYCAATRAYGSSRLRLADTYEYWGQGTQVTVSSPDSEAAAKEAAAKEAAAKEAAAKEAAAKPDGSSQLQLVESGGGSVQPGGSLRLSCEVSGRTFSSYTMGWFRQAPGKEREFVVAISKGGYKYDSVSLEARFTISKDNTKNTVYLQMNSLKPEDTAVYYCAATRAYGSSRLRLADTYEYWGQGTQVTVSS
notes: Tandem bivalent nanobody
B3: 2V15-EAAAK-Turn (VHH)
chain: B2 chain with S30A, A97G, D110E, S188A, A255G, D268E
notes: Tandem bivalent nanobody
B4: 2V1-3GS (VHH)
chain: QLQLVESGGGSVQPGGSLRLSCEVSGRTFSSYTMGWFRQAPGKEREFVVAISKGGYKYDSVSLEARFTISKDNTKNTVYLQMNSLKPEDTAVYYCAATRAYGSSRLRLADTYEYWGQGTQVTVSSGGSQLQLVESGGGSVQPGGSLRLSCEVSGRTFSSYTMGWFRQAPGKEREFVVAISKGGYKYDSVSLEARFTISKDNTKNTVYLQMNSLKPEDTAVYYCAATRAYGSSRLRLADTYEYWGQGTQVTVSS
notes: Tandem bivalent nanobody
B5: 2V15-20S (VHH)
chain: QLQLVESGGGSVQPGGSLRLSCEVSGRTFASYTMGWFRQAPGKEREFVVAISKGGYKYDSVSLEARFTISKDNTKNTVYLQMNSLKPEDTAVYYCAGTRAYGSSRLRLAETYEYWGQGTQVTVSSSSSSSSSSSSSSSSSSSSSSQLQLVESGGGSVQPGGSLRLSCEVSGRTFASYTMGWFRQAPGKEREFVVAISKGGYKYDSVSLEARFTISKDNTKNTVYLQMNSLKPEDTAVYYCAGTRAYGSSRLRLAETYEYWGQGTQVTVSS
notes: Tandem bivalent nanobody
B6: 2V15-9S (VHH)
chain: QLQLVESGGGSVQPGGSLRLSCEVSGRTFASYTMGWFRQAPGKEREFVVAISKGGYKYDSVSLEARFTISKDNTKNTVYLQMNSLKPEDTAVYYCAGTRAYGSSRLRLAETYEYWGQGTQVTVSSSSSSSSSSSQLQLVESGGGSVQPGGSLRLSCEVSGRTFASYTMGWFRQAPGKEREFVVAISKGGYKYDSVSLEARFTISKDNTKNTVYLQMNSLKPEDTAVYYCAGTRAYGSSRLRLAETYEYWGQGTQVTVSS
notes: Tandem bivalent nanobody
B7: 2V1-6A (VHH)
chain: QLQLVESGGGSVQPGGSLRLSCEVSGRTFSSYTMGWFRQAPGKEREFVVAISKGGYKYDSVSLEARFTISKDNTKNTVYLQMNSLKPEDTAVYYCAATRAYGSSRLRLADTYEYWGQGTQVTVSSAAAAAAQLQLVESGGGSVQPGGSLRLSCEVSGRTFSSYTMGWFRQAPGKEREFVVAISKGGYKYDSVSLEARFTISKDNTKNTVYLQMNSLKPEDTAVYYCAATRAYGSSRLRLADTYEYWGQGTQVTVSS
notes: Tandem bivalent nanobody
B8: 2V1-(AP)10 (VHH)
chain: QLQLVESGGGSVQPGGSLRLSCEVSGRTFSSYTMGWFRQAPGKEREFVVAISKGGYKYDSVSLEARFTISKDNTKNTVYLQMNSLKPEDTAVYYCAATRAYGSSRLRLADTYEYWGQGTQVTVSSPDSAPAPAPAPAPAPAPAPAPAPDGSSQLQLVESGGGSVQPGGSLRLSCEVSGRTFSSYTMGWFRQAPGKEREFVVAISKGGYKYDSVSLEARFTISKDNTKNTVYLQMNSLKPEDTAVYYCAATRAYGSSRLRLADTYEYWGQGTQVTVSS
notes: Tandem bivalent nanobody
B9: 2V1-(AP)5 (VHH)
chain: QLQLVESGGGSVQPGGSLRLSCEVSGRTFSSYTMGWFRQAPGKEREFVVAISKGGYKYDSVSLEARFTISKDNTKNTVYLQMNSLKPEDTAVYYCAATRAYGSSRLRLADTYEYWGQGTQVTVSSPDSAPAPAPAPAPDGSSQLQLVESGGGSVQPGGSLRLSCEVSGRTFSSYTMGWFRQAPGKEREFVVAISKGGYKYDSVSLEARFTISKDNTKNTVYLQMNSLKPEDTAVYYCAATRAYGSSRLRLADTYEYWGQGTQVTVSS
notes: Tandem bivalent nanobody
B10: 2V1-39GS (VHH)
chain: QLQLVESGGGSVQPGGSLRLSCEVSGRTFSSYTMGWFRQAPGKEREFVVAISKGGYKYDSVSLEARFTISKDNTKNTVYLQMNSLKPEDTAVYYCAATRAYGSSRLRLADTYEYWGQGTQVTVSSGGGGSGGGSGGGGSGGGGSGGGGSGGGGSGGGGSGGGGSQLQLVESGGGSVQPGGSLRLSCEVSGRTFSSYTMGWFRQAPGKEREFVVAISKGGYKYDSVSLEARFTISKDNTKNTVYLQMNSLKPEDTAVYYCAATRAYGSSRLRLADTYEYWGQGTQVTVSS
notes: Tandem bivalent nanobody
B11: 2V1-3A (VHH)
chain: B4 chain with G126A, G127A, S128A
notes: Tandem bivalent nanobody
B12: 2V1-EAAAK-Rigid (VHH)
chain: QLQLVESGGGSVQPGGSLRLSCEVSGRTFSSYTMGWFRQAPGKEREFVVAISKGGYKYDSVSLEARFTISKDNTKNTVYLQMNSLKPEDTAVYYCAATRAYGSSRLRLADTYEYWGQGTQVTVSSLAEAAAKEAAAKEAAAKEAAAKEAAAKAAAQLQLVESGGGSVQPGGSLRLSCEVSGRTFSSYTMGWFRQAPGKEREFVVAISKGGYKYDSVSLEARFTISKDNTKNTVYLQMNSLKPEDTAVYYCAATRAYGSSRLRLADTYEYWGQGTQVTVSS
notes: Tandem bivalent nanobody
B13: 2V1-30GS (VHH)
chain: QLQLVESGGGSVQPGGSLRLSCEVSGRTFSSYTMGWFRQAPGKEREFVVAISKGGYKYDSVSLEARFTISKDNTKNTVYLQMNSLKPEDTAVYYCAATRAYGSSRLRLADTYEYWGQGTQVTVSSGGGGSGGGSGGGGSGGGSGGGSGGGSGGGSQLQLVESGGGSVQPGGSLRLSCEVSGRTFSSYTMGWFRQAPGKEREFVVAISKGGYKYDSVSLEARFTISKDNTKNTVYLQMNSLKPEDTAVYYCAATRAYGSSRLRLADTYEYWGQGTQVTVSS
notes: Tandem bivalent nanobody
B14: 2V1-NL (VHH)
chain: QLQLVESGGGSVQPGGSLRLSCEVSGRTFSSYTMGWFRQAPGKEREFVVAISKGGYKYDSVSLEARFTISKDNTKNTVYLQMNSLKPEDTAVYYCAATRAYGSSRLRLADTYEYWGQGTQVTVSSQLQLVESGGGSVQPGGSLRLSCEVSGRTFSSYTMGWFRQAPGKEREFVVAISKGGYKYDSVSLEARFTISKDNTKNTVYLQMNSLKPEDTAVYYCAATRAYGSSRLRLADTYEYWGQGTQVTVSS
notes: Tandem bivalent nanobody; also called bivalent V1 without a linker

target: T1, human VEGFA165 (human, UniProt P15692-4 27-191); assay: competitive ELISA, coated VEGFA, competitor VEGFR2-ECD-Fc 1 nM
T1 construct: Bought protein from two suppliers, treated as one molecule; the supplier is named under assay; also called antigen VEGFA
T1 sequence (P15692 other isoform, or with tags, fused parts or gaps limits assumed): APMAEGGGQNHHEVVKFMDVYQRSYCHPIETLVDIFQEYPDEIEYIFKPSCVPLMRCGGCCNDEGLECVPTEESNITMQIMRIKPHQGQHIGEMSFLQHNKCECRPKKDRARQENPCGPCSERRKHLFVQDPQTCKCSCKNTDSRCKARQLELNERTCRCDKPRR

IC50 [nM] | Maximum inhibition rate (%) | Binder
2.03 | 94.2 | B1
1.56 | 96.8 | B2
1.76 | 96.7 | B3
3 | 91 | B4
4.38 | 89.8 | B5
3.53 | 88.8 | B6

target: T1, human VEGFA165; assay: ELISA, coated human VEGFA165, anti-His detection
Experimental: Antigen human VEGFA165 (label-free, purchased from Sino Biological, Cat. No.: HPLC-10008-HNAH, hereinafter referred to as VEGFA) was diluted with ELISA coating buffer to a final concentration of 0.3 μg/mL and added to a microplate at 100 μL/well for coating at 4° C. overnight. […] The solution used for antibody dilution was PBS containing 0.1% Tween-20 (pH 7.4), i.e., PBST. After being incubated at 37° C. for 1 h, the microplate was washed 3 times with PBST, and a dilution of His-Tag murine monoclonal antibody (purchased from Proteintech, Cat. No.: 66005-1-Ig) was added. The plate was further incubated at 37° C. for 1 h and washed again. Subsequently, a dilution of HRP-labeled goat anti-mouse IgG antibody (HRP-conjugated Affinipure Goat Anti-Mouse IgG (H+L), purchased from Proteintech, Cat. No.: SA00001-1) was added, and the plate was incubated at room temperature for 45 min. After the plate was washed, 100 μL of TMB (purchased from Tiangen Biotech, Cat. No.: PA107-01) was added to each well for color development at 37° C. for 15 min, followed by the addition of 50 μL of stopping solution. The absorbance at 450 nm (OD450) was measured using a microplate reader.

EC50 [nM] | Binder
0.33 | B7
0.28 | B1
0.18 | B8
0.19 | B9
0.31 | B2
0.33 | B3
0.18 | B10
0.25 | B11
0.22 | B12
0.22 | B13
0.43 | B5
0.21 | B6
0.29 | B14

From patent US20260234232A1 (QUAERITE BIOPHARM RESEARCH BEIJING, published 2026)
